These results are taken from patent US20120237948A1 (published 2012).

What all share (assay): competitive ELISA
For orientation: An ELISA detects its analyte on a solid surface through an enzyme-linked reagent.

The target of test [1] is T1, peptide Gly-Glu-Pro-Gly-Asp-Asp-Gly-Pro-Ser-Gly-Ala-Glu-Gly-Pro-Pro-Gly-Pro-Gln-Gly (SEQ ID NO: 18).
T1 peptide: GEPGDDGPSGAEGPPGPQG

Test [2] addresses T2, neoepitope peptide Gly-Pro-Gln-Gly (SEQ ID NO: 15).
T2 peptide: GPQG

Test [3] deals with neoepitope peptide Asp-Gly-Pro-Ser-Gly-Ala-Glu-Gly-Pro-HyP-Gly-Pro-Gln-Gly (SEQ ID NO: 14) (hydroxyproline (HyP) at position 10 of the peptide (position 971)).
Test [4] addresses T3, peptide Gly-Pro-Pro-Gly-Pro-Gln-Gly-Leu-Ala-Gly-Gln-Arg (SEQ ID NO: 16).
T3 peptide: GPPGPQGLAGQR

Test [5] has as its target T4, peptide Gly-Glu-Pro-Gly-Asp-Asp-Gly-Pro-Ser-Gly-Ala-Glu-Gly-Pro-HyP-Gly-Pro-Gln-Gly (SEQ ID NO: 17).
T4 peptide: GEPGDDGPSGAEGP[Hyp]GPQG

Square brackets hold non-standard residues; d marks the D form. Ends that are not written are not given here. Hyp = O=C(O)[C@@H]1C[C@@H](O)CN1

B1: anti-neoepitope antibody 20A10 (antibody, V domains shown)
VH: QIQLVQSGPELKEPGETVRISCKASGYTFTKYGINWVKQAPGKGLEWMAWINTYSGMTTYADDFKGRFAFSLETSANTAYLQINHLKNDDTATYFCARSLGYDYGGFAYWGQGTLVTVSA
VL: DVLLTQTPLSLPVSLGDQAFISCRSGQTLVHDNENTYFHWYLQKPGQSPKLLIYKISNRFSGVPDRFSGSGSGTDFTLKISRVEPEDLGIYFCSQNTHVPFTFGSGTKLEIKR
Consider B1, for which the half-maximal inhibitory concentration (IC50) in test [1] is 22 nM; in test [2], 99000 nM; in test [3], 40 nM; in test [4], 20200 nM; in test [5], 20 nM.

The IC50 is the midpoint of a concentration-inhibition curve. A lower IC50 goes with inhibition by little substance.
